{"source": "paper PMC10393190", "about": "(Genes & Development, 2022)", "key": {"[1]": {"target": "T1, Mer2 (Saccharomyces cerevisiae, UniProt P21651 1-314)", "T1 sequence": "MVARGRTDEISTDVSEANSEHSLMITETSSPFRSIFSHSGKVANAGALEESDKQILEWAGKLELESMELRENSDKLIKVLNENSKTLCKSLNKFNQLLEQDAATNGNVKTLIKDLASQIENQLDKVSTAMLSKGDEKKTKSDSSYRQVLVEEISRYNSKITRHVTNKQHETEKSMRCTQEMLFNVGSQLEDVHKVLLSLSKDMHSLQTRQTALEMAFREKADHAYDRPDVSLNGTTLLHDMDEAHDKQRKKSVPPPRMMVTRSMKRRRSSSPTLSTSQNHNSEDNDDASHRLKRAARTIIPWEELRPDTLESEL", "test": "EMSA"}, "[2]": {"target": "T2, REC114;MEI4 (Mus musculus;Mus musculus, UniProt Q9CWH4;Q8BRM6 1-259;1-389, |)", "T2 sequence 1": "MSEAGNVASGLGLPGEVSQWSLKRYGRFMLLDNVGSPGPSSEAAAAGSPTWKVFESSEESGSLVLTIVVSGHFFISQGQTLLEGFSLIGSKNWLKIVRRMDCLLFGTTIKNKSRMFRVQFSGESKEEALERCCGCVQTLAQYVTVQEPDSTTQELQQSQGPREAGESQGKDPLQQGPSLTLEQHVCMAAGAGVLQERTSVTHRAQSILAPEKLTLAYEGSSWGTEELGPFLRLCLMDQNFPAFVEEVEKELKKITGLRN", "T2 sequence 2": "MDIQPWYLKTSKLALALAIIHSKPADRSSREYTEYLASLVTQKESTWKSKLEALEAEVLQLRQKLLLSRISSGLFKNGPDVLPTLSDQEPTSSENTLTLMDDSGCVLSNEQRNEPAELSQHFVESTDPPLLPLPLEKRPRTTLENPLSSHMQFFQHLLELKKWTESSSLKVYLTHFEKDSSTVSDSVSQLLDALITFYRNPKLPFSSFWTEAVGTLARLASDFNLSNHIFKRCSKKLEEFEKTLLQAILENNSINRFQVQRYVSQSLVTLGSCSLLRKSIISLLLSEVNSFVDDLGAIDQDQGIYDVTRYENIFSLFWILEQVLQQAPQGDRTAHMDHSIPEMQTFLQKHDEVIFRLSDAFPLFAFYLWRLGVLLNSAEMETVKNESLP", "test": "competition"}, "[3]": {"target": "T1, Mer2", "test": "EMSA", "remark": "listed apart in the source"}, "[4]": {"target": "T3, Rec114;Mei4 (Saccharomyces cerevisiae;Saccharomyces …, UniProt P32841;P29467 1-428;1-408, |)", "T3 sequence 1": "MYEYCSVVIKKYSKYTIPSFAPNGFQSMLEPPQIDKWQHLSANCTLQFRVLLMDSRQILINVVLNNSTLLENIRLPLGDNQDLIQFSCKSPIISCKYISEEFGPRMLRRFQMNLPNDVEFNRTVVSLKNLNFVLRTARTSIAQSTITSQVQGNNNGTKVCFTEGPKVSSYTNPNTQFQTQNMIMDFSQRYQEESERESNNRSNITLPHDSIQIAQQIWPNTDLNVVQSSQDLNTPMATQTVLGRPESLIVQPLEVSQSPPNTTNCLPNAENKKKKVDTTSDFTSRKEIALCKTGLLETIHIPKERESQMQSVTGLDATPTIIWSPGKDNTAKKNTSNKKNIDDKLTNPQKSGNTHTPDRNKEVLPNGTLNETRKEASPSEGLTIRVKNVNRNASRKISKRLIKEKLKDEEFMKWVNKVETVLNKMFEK", "T3 sequence 2": "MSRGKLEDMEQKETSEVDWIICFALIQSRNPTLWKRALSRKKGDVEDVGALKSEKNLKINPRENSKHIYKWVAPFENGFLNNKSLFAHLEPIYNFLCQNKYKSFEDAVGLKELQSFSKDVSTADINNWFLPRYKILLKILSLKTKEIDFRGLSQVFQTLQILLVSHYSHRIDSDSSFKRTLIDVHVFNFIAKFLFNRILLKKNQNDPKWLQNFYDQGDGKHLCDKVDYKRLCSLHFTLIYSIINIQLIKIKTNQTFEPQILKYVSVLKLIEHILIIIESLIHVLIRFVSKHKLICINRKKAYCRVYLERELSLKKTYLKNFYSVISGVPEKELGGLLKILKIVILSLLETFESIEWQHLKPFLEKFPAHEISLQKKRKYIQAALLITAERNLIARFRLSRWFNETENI", "test": "competition"}, "[5]": {"target": "T4, Rec15 coiled-coil domain (Schizosaccharomyces pombe, UniProt Q09094 1-160)", "T4 sequence": "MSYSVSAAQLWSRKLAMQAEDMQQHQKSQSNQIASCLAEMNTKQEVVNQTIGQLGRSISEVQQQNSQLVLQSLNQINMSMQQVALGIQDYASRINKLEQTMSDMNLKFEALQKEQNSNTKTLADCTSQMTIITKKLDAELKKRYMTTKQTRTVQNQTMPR", "test": "competition"}, "[6]": {"target": "T5, IHO1 coiled-coil domain (Mus musculus, UniProt Q6PDM4 109-267)", "T5 sequence": "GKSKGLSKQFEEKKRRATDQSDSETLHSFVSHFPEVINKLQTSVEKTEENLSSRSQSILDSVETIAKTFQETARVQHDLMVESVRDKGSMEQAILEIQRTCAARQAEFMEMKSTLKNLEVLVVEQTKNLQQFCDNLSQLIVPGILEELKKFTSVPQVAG", "test": "competition"}, "[7]": {"target": "T1, Mer2", "test": "EMSA", "remark": "listed apart in the source"}, "[8]": {"target": "T1, Mer2", "test": "EMSA", "remark": "listed apart in the source"}}, "note": "Like-named read-outs stand apart in the source and are kept apart here.", "data": [{"binder": "HJ20 (cb922/cb923/cb924/cb925) (structured_DNA) DNA 1: CAACGTGGGCAAAGATGTCCTAGCAATGTAATCGTCTATG DNA 2: ATTCTACCAGTGCCAGTGATGGACATCTTTGCCCACGTTG DNA 3: ATCCTCTAGACAGCTCCATGATCACTGGCACTGGTAGAAT DNA 4: CATAGACGATTACATTGCTACATGGAGCTGTCTAGAGGAT", "values": [{"measurement": "apparent K (half saturation)", "setting": "[1]", "result": "23.9 ± 2.9", "unit": "nM"}]}, {"binder": "HJ40 (cb095/cb096/cb097/cb098) (structured_DNA) DNA 1: CTAGTATAGAGCCGGCGCGCCATGTCTAGATAGCGTTAGGTCTGCCGAATAGTACTACTCGGATCCCGAGCGAACCACGC DNA 2: GCGTGGTTCGCTCGGGATCCGAGTAGTACTATTCGGCAGAGGATTCGAATAGGCCTAATCGAATTCCGCCATCGATGCAC DNA 3: GTGCATCGATGGCGGAATTCGATTAGGCCTATTCGAATCCAGACGCGAGTAGATCTTCACGGTACCCGCGGTTACCCGTG DNA 4: CACGGGTAACCGCGGGTACCGTGAAGATCTACTCGCGTCTCCTAACGCTATCTAGACATGGCGCGCCGGCTCTATACTAG", "values": [{"measurement": "binding signal", "setting": "[2]", "result": "> 20 fold higher affinity than dsDNA"}, {"measurement": "apparent K (half saturation)", "setting": "[3]", "result": "9.2 ± 1", "unit": "nM"}, {"measurement": "binding signal", "setting": "[4]", "result": "~10 fold better competitor than dsDNA"}, {"measurement": "binding result", "setting": "[5]", "result": "binds"}, {"measurement": "binding result", "setting": "[6]", "result": "binds"}]}, {"binder": "3' flaps (cb095/cb098/cb122) (structured_DNA) DNA 1: CTAGTATAGAGCCGGCGCGCCATGTCTAGATAGCGTTAGGTCTGCCGAATAGTACTACTCGGATCCCGAGCGAACCACGC DNA 2: CACGGGTAACCGCGGGTACCGTGAAGATCTACTCGCGTCTCCTAACGCTATCTAGACATGGCGCGCCGGCTCTATACTAG DNA 3: AGACGCGAGTAGATCTTCACGGTACCCGCGGTTACCCGTG", "values": [{"measurement": "apparent K (half saturation)", "setting": "[7]", "result": "34.4 ± 25.2", "unit": "nM"}]}, {"binder": "Fork (cb095/cb098/cb122/cb120) (structured_DNA) DNA 1: CTAGTATAGAGCCGGCGCGCCATGTCTAGATAGCGTTAGGTCTGCCGAATAGTACTACTCGGATCCCGAGCGAACCACGC DNA 2: CACGGGTAACCGCGGGTACCGTGAAGATCTACTCGCGTCTCCTAACGCTATCTAGACATGGCGCGCCGGCTCTATACTAG DNA 3: AGACGCGAGTAGATCTTCACGGTACCCGCGGTTACCCGTG DNA 4: GCGTGGTTCGCTCGGGATCCGAGTAGTACTATTCGGCAGA", "values": [{"measurement": "apparent K (half saturation)", "setting": "[8]", "result": "24.4 ± 5.5", "unit": "nM"}]}]}
